Target: recombinant anthrax protective antigen (PA) (Bacillus anthracis, UniProt P13423 30-764)
Experiment: SPR (Biacore 3000), antibody immobilized on CM3, PA in solution

recombinant anthrax protective antigen (PA), sequence (P13423 30-764 limits assumed): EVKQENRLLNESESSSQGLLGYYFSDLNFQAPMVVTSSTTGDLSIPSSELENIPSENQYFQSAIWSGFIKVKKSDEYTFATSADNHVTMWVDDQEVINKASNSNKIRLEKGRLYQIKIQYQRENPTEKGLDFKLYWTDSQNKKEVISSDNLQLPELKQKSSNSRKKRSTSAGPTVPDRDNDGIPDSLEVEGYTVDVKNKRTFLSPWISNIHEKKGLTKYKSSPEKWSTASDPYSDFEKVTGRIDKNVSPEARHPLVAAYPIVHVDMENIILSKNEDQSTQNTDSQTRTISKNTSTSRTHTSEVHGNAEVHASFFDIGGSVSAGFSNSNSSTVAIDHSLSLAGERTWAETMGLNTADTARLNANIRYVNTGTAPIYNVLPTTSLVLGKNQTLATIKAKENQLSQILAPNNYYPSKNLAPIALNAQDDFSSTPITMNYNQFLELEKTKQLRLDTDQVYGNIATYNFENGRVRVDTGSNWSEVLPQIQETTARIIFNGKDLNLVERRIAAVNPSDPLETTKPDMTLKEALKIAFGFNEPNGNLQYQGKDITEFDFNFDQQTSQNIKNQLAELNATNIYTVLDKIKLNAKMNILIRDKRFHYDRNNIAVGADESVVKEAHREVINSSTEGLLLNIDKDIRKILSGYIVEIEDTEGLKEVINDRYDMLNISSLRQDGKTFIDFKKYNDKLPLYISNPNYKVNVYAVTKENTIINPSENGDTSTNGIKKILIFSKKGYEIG

B1: anti-PA W1 full-length IgG1 (antibody, V domains shown)
VH: EVQLLETGGGLVQPGGSLRLSCAASGFTLRSYHMSWVRRAPGKGLEWVSVIYDGGSTSYADSVKGRFTISRDNSKNTLYLQMTSLRAEDTAVYYCARSGRPLQNYYYMDVWGKGTTVTVSS
VL: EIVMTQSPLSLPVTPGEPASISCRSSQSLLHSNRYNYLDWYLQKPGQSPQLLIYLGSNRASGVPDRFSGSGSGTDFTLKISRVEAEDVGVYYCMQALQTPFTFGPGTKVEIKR
- Kd: 0.0397 nM
- koff: 1.15e-05 s⁻¹
- kon: 290000 M⁻¹ s⁻¹
